Test results as given in publication PMC9746958.

Target: leptin receptor (OBR-2K), fused to luciferase (OBR-2K Rluc) or to YFP (OBR-2K YFP) (UniProt P48357)
Experiment: FRET or BRET; HEK293T cells co-transfected with OBR-2K Rluc (donor) and OBR-2K YFP (acceptor); pre-treated with homocysteine (1-10 mM) for 4 h, then leptin (10 nM) for 30 min; coelenterazine h 20 uM; result in mBRET units

leptin receptor (OBR-2K), fused to luciferase (OBR-2K Rluc) or to YFP (OBR-2K YFP) (from UniProt P48357 22-1165)
fold increase in BRET signal upon leptin stimulation: 3 fold
